Measured values from patent publication US20160264663A1 (published 2016).

Columns and labels:
human podocalyxin [1] = molecular target: T1, human podocalyxin (human); assay: flow cytometry, isotype control, SKOV3 cells
T1 chain: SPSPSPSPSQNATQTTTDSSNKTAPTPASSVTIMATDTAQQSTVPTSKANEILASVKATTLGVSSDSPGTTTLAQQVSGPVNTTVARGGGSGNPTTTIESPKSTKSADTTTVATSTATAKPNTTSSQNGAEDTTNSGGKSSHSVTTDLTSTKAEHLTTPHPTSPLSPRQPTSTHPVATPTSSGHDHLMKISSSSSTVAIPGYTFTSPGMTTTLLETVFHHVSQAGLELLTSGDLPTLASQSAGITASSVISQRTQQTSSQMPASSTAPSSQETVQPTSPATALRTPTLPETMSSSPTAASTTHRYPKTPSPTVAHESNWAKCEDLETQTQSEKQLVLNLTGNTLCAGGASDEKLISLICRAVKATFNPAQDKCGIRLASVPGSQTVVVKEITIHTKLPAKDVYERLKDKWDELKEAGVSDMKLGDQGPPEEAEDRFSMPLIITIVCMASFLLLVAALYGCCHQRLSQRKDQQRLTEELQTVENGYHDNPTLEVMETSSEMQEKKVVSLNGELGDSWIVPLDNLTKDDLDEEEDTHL

human podocalyxin [2] = molecular target: T1, human podocalyxin; assay: flow cytometry, isotype control, MCF7 cells
human podocalyxin [3] = molecular target: T1, human podocalyxin; assay: flow cytometry, isotype control, T47-D cells
human podocalyxin [4] = molecular target: T1, human podocalyxin; assay: flow cytometry, isotype control, HUVEC cells
human podocalyxin [5] = molecular target: T1, human podocalyxin; assay: flow cytometry, isotype control, OVCAR3 cells
human podocalyxin [6] = molecular target: T1, human podocalyxin; assay: flow cytometry, isotype control, MDA-MB-231 cells
human podocalyxin [7] = molecular target: T1, human podocalyxin; assay: flow cytometry, isotype control, 293 HEK cells
human podocalyxin [8] = molecular target: T1, human podocalyxin; assay: flow cytometry, isotype control, A172 cells
human podocalyxin [9] = molecular target: T1, human podocalyxin; assay: flow cytometry, isotype control, OVCAR10 cells
human podocalyxin [10] = molecular target: T1, human podocalyxin; assay: flow cytometry, isotype control, CaOV3 cells
human podocalyxin [11] = molecular target: T1, human podocalyxin; assay: flow cytometry, control antibody, T47-D cells
human podocalyxin [12] = molecular target: T1, human podocalyxin; assay: flow cytometry, control antibody, MDA-MB-231 cells
human podocalyxin [13] = molecular target: T1, human podocalyxin; assay: flow cytometry, control antibody, A172 cells
human podocalyxin [14] = molecular target: T1, human podocalyxin; assay: flow cytometry, control antibody, OVCAR3 cells
human podocalyxin [15] = molecular target: T1, human podocalyxin; assay: flow cytometry, control antibody, HUVEC cells
human podocalyxin [16] = molecular target: T1, human podocalyxin; assay: flow cytometry, control antibody, 293 HEK cells
human podocalyxin [17] = molecular target: T1, human podocalyxin; assay: flow cytometry, control antibody, CaOV3 cells
human podocalyxin [18] = molecular target: T1, human podocalyxin; assay: flow cytometry, control antibody, OVCAR10 cells
human podocalyxin [19] = molecular target: T1, human podocalyxin; assay: flow cytometry, control antibody, MCF7 cells
human podocalyxin [20] = molecular target: T1, human podocalyxin; assay: FACS, isotype control, hPodo/MDA cells
human podocalyxin [21] = molecular target: T1, human podocalyxin; assay: cross competition FACS on MDA-MB-231 cells; unlabeled antibody 25 ug/mL; detected antibody: B-mIgG1 5 ug/mL (control)
human podocalyxin [22] = molecular target: T1, human podocalyxin; assay: cross competition FACS on MDA-MB-231 cells; unlabeled antibody 25 ug/mL; competitor and detected antibody: B-3G2.2 5 ug/mL
human podocalyxin [23] = molecular target: T1, human podocalyxin; assay: cross competition FACS on MDA-MB-231 cells; unlabeled antibody 25 ug/mL; competitor and detected antibody: biotinylated Rb/Hu Podo83 5 ug/mL
human podocalyxin [24] = molecular target: T1, human podocalyxin; assay: cross competition FACS on MDA-MB-231 cells; unlabeled antibody 25 ug/mL; detected antibody: B-Herceptin 5 ug/mL (control, its target on the cells not given)
human podocalyxin [25] = molecular target: T1, human podocalyxin; assay: cross competition FACS on MDA-MB-231 cells; unlabeled antibody 25 ug/mL; detected antibody: B-Ova 12 5 ug/mL (control)

MsIgG2a (antibody)
Live cell GeoMean FL (geometric mean fluorescence units) (human podocalyxin [1]): 485
Live cell GeoMean FL (geometric mean fluorescence units) (human podocalyxin [2]): 1130
Live cell GeoMean FL (geometric mean fluorescence units) (human podocalyxin [3]): 787
Live cell GeoMean FL (geometric mean fluorescence units) (human podocalyxin [4]): 484
Live cell GeoMean FL (geometric mean fluorescence units) (human podocalyxin [5]): 708
Live cell GeoMean FL (geometric mean fluorescence units) (human podocalyxin [6]): 478
Live cell GeoMean FL (geometric mean fluorescence units) (human podocalyxin [7]): 556
Live cell GeoMean FL (geometric mean fluorescence units) (human podocalyxin [8]): 797
Live cell GeoMean FL (geometric mean fluorescence units) (human podocalyxin [9]): 618
Live cell GeoMean FL (geometric mean fluorescence units) (human podocalyxin [10]): 892

Control Rb/Hu IgG1 (antibody)
Live cell GeoMean FL (geometric mean fluorescence units) (human podocalyxin [11]): 667
Live cell GeoMean FL (geometric mean fluorescence units) (human podocalyxin [12]): 477
Live cell GeoMean FL (geometric mean fluorescence units) (human podocalyxin [13]): 644
Live cell GeoMean FL (geometric mean fluorescence units) (human podocalyxin [14]): 629
Live cell GeoMean FL (geometric mean fluorescence units) (human podocalyxin [15]): 489
Live cell GeoMean FL (geometric mean fluorescence units) (human podocalyxin [16]): 446
Live cell GeoMean FL (geometric mean fluorescence units) (human podocalyxin [17]): 767
Live cell GeoMean FL (geometric mean fluorescence units) (human podocalyxin [18]): 653
Live cell GeoMean FL (geometric mean fluorescence units) (human podocalyxin [19]): 657

hIgG1 (antibody)
FACS signal (name not given) (human podocalyxin [20]): 544

3D3 (Santa Cruz Biotechnology sc23904) (antibody)
FACS signal (name not given) (human podocalyxin [21]): 419
FACS signal (name not given) (human podocalyxin [22]): 26400
FACS signal (name not given) (human podocalyxin [23]): 135000
FACS signal (name not given) (human podocalyxin [24]): 4820
FACS signal (name not given) (human podocalyxin [25]): 450

hIgG2 (antibody)
FACS signal (name not given) (human podocalyxin [20]): 533

mIgG1 (antibody)
FACS signal (name not given) (human podocalyxin [21]): 414
FACS signal (name not given) (human podocalyxin [22]): 26600
FACS signal (name not given) (human podocalyxin [23]): 124000
FACS signal (name not given) (human podocalyxin [24]): 4810
FACS signal (name not given) (human podocalyxin [25]): 458
